Consider 2 molecules from patent US6693076.

The target of assay [1] is 125I-[Threonine59]IGF-I binding sites in adult rat brain sections (level of the cerebellum and brain stem) (rat). Put plainly: displacement of 0.01 nM 125I-[Thr59]IGF-I from rat brain sections; competitor at .10 mM.
The target is the same in assay [2]. As to the kind of experiment: displacement of 0.01 nM 125I-[Thr59]IGF-I from rat brain sections; competitor at 1 mM.
Assay [3] shares this target. Put plainly: displacement of 0.01 nM 125I-[Thr59]IGF-I from rat brain sections; competitor at .25 mM.
The target is the same in assay [4]. Put plainly: displacement of 0.01 nM 125I-[Thr59]IGF-I from rat brain sections; competitor at .025 mM.

On to SRVSRRSR [IGF-II(33-40)], for which the results for the percent max. bound in assay [1] and in assay [2] were 82% and 76%, respectively.

ALLETYCATPAKSE [IGF-II(54-67)]: the percent max. bound in assay [3] worked out at 167%; in assay [4], 132%.
